B1: recombinant soluble FcγRIIa dimer (rsFcγRIIa dimer), head to tail homodimer construct of FIG. 1 (receptor)
chain: QAAAPPKAVLKLEPPWINVLQEDSVTLTCQGARSPESDSIQWFHNGNLIPTHTQPSYRFKANNNDSGEYTCQTGQTSLSDPVHLTVLSEWLVLQTPHLEFQEGETIMLRCHSWKDKPLVKVTFFQNGKSQKFSHLDPTFSIPQANHSHSGDYHCTGNIGYTLFSSKPVTITVQVPSMGSSSPVAPPKAVLKLEPPWINVLQEDSVTLTCQGARSPESDSIQWFHNGNLIPTHTQPSYRFKANNNDSGEYTCQTGQTSLSDPVHLTVLSEWLVLQTPHLEFQEGETIMLRCHSWKDKPLVKVTFFQNGKSQKFSHLDPTFSIPQANHSHSGDYHCTGNIGYTLFSSKPVTITVQVPSMGSSSPHHHHHH
B2: recombinant soluble D2FcγRIIaFc (D2) protein (Fc fusion)
chain: QAAAPPKAVLKLEPPWINVLQEDSVTLTCQGARSPESDSIQWFHNGNLIPTHTQPSYRFKANNNDSGEYTCQTGQTSLSDPVHLTVLSEWLVLQTPHLEFQEGETIMLRCHSWKDKPLVKVTFFQNGKSQKFSHLDPTFSIPQANHSHSGDYHCTGNIGYTLFSSKPVTITVQVPSMGSSSPVAPPKAVLKLEPPWINVLQEDSVTLTCQGARSPESDSIQWFHNGNLIPTHTQPSYRFKANNNDSGEYTCQTGQTSLSDPVHLTVLSEWLVLQTPHLEFQEGETIMLRCHSWKDKPLVKVTFFQNGKSQKFSHLDPTFSIPQANHSHSGDYHCTGNIGYTLFSSKPVTITVQVPSMGSSSPPRGPTIKPCPPCKCPAPNLEGGPSVFIFPPKIKDVLMISLSPIVTCVVVDVSEDDPDVQISWFVNNVEVHTAQTQTHREDYNSTLRVVSALPIQHQDWMSGKAFACAVNNKDLPAPIERTISKPKGSVRAPQVYVLPPPEEEMTKKQVTLTCMVTDFMPEDIYVEWTNNGKTELNYKNTEPVLDSDGSYFMYSKLRVEKKNWVERNSYSCSVVHEGLHNHHTTKSFSRTPGK

How the values were obtained:
[1] = molecular target: ovalbumin-anti-ovalbumin immune complexes (OVA ICs); experiment: cell-based or functional assay
[2] = molecular target: heat-aggregated IgG (HAGG); experiment: cell-based or functional assay

Binder | IC50, TNF-α release from MC/9 cells induced by OVA ICs [1] [mg/L] | fold potency against rsFcγRIIa monomer, MC/9 TNF-α release [1] [fold] | fold potency against BIF and M2, HAGG-induced platelet activation (CD41 and CD62P positive) [2] [fold] | fold potency against BIF and M2, loss of CD62L on human neutrophils induced by OVA ICs [1] [fold] | fold potency against Fc-tagged monomer (M2), MC/9 TNF-α release [1] [fold] | fold potency against the non-Fc tagged dimer, MC/9 TNF-α release [1] [fold]
B1 | 2.1 | 8 |  |  |  | 
B2 |  |  | ~3 | ~6 | 12 | 3

Source: US20130089893A1 (TRILLIUM THERAPEUTICS, published 2013)
